Experiments:
[1] = biological target: PpNAGK, recombinant mature N-acetylglutamate kinase (301 residues without cTP) fused to a His-tag (Pinus pinaster (maritime pine))
[2] = biological target: PpPIIa, recombinant mature protein (without the chloroplast transit peptide) (Pinus pinaster (maritime pine)); assay: SEC; ENrich SEC 650 10 x 300 column (FPLC), 250 uL of protein at 0.6 ug/uL in 25 mM Tris-HCl pH 7.5, 150 mM NaCl, 10% glycerol, room temperature, 0.75 mL/min; calibrated with protein standards; fractions checked by western blot
[3] = biological target: PpPIIb, recombinant mature protein (without the chloroplast transit peptide) (Pinus pinaster (maritime pine)); assay: as above

Row | PpNAGK enzyme activity (N-acetylglutamylhydroxamate assay) with increasing amounts of PpPIIa mixed with 0.65 ug PpNAGK [1] [fold] | stoichiometry N [2] | PpNAGK enzyme activity (N-acetylglutamylhydroxamate assay) with increasing amounts of PpPIIb mixed with 0.65 ug PpNAGK [1] [fold] | stoichiometry N [3] | Substance
1 | 5 | 3 | – | – | PpPIIa, recombinant mature protein (without the chloroplast transit peptide) (natural protein)
2 | – | – | 5 | 3 | PpPIIb, recombinant mature protein (without the chloroplast transit peptide) (natural protein)
